# Results from the DeepSol protein solubility set.
# Experiment: soluble on expression in E. coli; label from the status in PepcDB or PDB records
row,Sequence,soluble on expression in E. coli
1,PLRLALSKLLVKANQPSAALSPLVHLPPMPSRDYLAMRAALAQKQKQNDIALESYQLLTQREPDNARWWLGLAIQQERALTFTAAINSYNEALGKVGISNQSQAFIRDRLTILKQLESAQ,not soluble
2,PLSQVVRFHASSGTTGKPTVVGYTANDIRNWVESLCRALVSCGVSSDDIMQIAYGYGLFTGGLGFHYAAERLGATVLPISAGNTARQIELMKDLGSTVMACTPSYMIYLAEYASQMGVDIAEDTNLRAGIFGAEPWSEETRKRIEDKTGITAYDVYGTSELSGPLFTECTER,not soluble
3,PPTGECRTVVFDFDGVLAEGFEGEVRPRPLGVALARRLIGRGYRVYIVSGRPEQERSLIARLLREWCIPLGGVRGIILRRRGVGEVDHKLESIMEVEAREGCVGEVHDDNPYVLEALRRRVETLVLHTPR,not soluble
4,PRVPSAGAAECKGEISNVQWKNDTNIKDGVFVGSYGQGADVQFDWKVDPGAKAGDQFTLKLPNELSRLGNKDLTLTAPSGEEVAKGTWDDVAKTWTFTLTDYANSHGDISGSAFFTVQWDRSVAQSNTQYPLTFSGCKGAGTLNGKTPEEGVGGTAQATSKTGLYDSKTDSARWNIYVETADTDIYTPVVVKDIGNTQLLFRCSDVKVFDRTPYPHTKIRDTPIDPNRWKCEEKDGGIIVSMVPDEHGRYLTAGQSLTIGFETPINDDTSRFITNKAIVEISPNKIENVEYSVDRGDAGGVGQGFQGKIKIQKEVVGETAPVQGNKFDFEYKCGETTQNISVAAGQTSDIFTQRSSSTCSITEKNVAEGVTVDFEVIDEETGKPAYVVPIDNGVTVKFNKNSSTTLNVKVTNTYPNKPEAKKGKFVIKKTVNGLDAGQKDKAFKFNYTCKAPDGDAYTEPQLAEVTAGRTWQSGNYPEGTICTIEEDLESAKVPGYSLISAQPKGDVTIKAEGTEGSPVEFAATNSYTKDLGSFSVQKKIEASAEAMPLLKDQEFGFKYTCGADKGEFKLKNGETKKVERIATGTKCTVEESDAKVPNGFMWTGKIEGTDLDPNDFTIVKDKTLAFTATNTYKQQYGGFTLSKNVTGDATNLEELQKRSYTFNYTCTAPTGTVLKDKVEITEETPKAIGNIPAASTCKVTEVEAPAKDTDWTVDLSVNGTWVGETAEFKVPAEGEPSISILAKNNYRQHKGSFTIEKIVDASEGIVTPKEFTFTWQCGEDKGAETVRVTNGKGRVEIDRAFPVGTKCSVKELEAEAEDARLITSWENQEFTIDKDKQHVIVSATNTYRYAESKVKIVKKLEGPAKDKAKDKTFTFDYSCVVNNEAIEGSVNITGEGATEIPESFPAGTKCTITERDASISGTTWTHRIAEDGQITIQSPAKVYQVGVTNAYSKPGFP,not soluble
5,PSMPASPVLTKAGITWLSLQWSKPSGTPSDEGISYILEMEEETSGYGFKPKYDGEDLAYTVKNLRRSTKYKFKVIAYNSEGKSNPSEVVEFTTCPD,soluble
6,PVAMKEAQKRLGDKVEYTTDMYDAVRGAEALFHVTEWKEFRMPDWSALSQTMAASLVIDGRNVYELPADSDFTLLNIGNSAIESASSK,not soluble
7,PVIGSVAPESLAAQAGLEAGQELLAVDGEPVTGWNGVNLQLVRRLGESGTLEVRVQEKGSNVDSTHQVRLDGWLKGEDNPDPIASLGIRPWRPALPPVLAELDPKGPAQAAGLKLGDRLQSIDGIAVDDWQQVVDSVRARPGQRVQLKVLRDGEVLDVALELAVRGEGKARSGYMGAGVAGTEWPAEMLREVSYGPLEAVGQALSRTWTMSLLTLDSIKKMLLGELSVKNLSGPITIAKVAGASAQSGVGDFLNF,not soluble
8,PVMADTIKLRIVETTDIHTNLMDYDYYKDKASDQIGLTRAATLVKQARAEVENSVLVDNGDLIQGSPMGDYMAAKGIKAGEVHPVYKAMNPLGYDVGNIGNHEFNYGLEFLKETINDAAFPYINANVFDAKTGQHLFTPYVIKEHSFKDTDGEAHTIKVGYIGFVPPQIMVWDKKNLEGKVTAADIKQTAEKLIPEMKAKGADVIVAIPHSGISTDEYQAGAENSVYYLTQVKGIDAIAFGHSHAVFPGKDFANVPGADIDKGTINGVTAVMPGRWGSHVGVMDLTLEKQQGRWAVTSGQSEARPIFDKANKKALVEADATMVQALQHDHQGTRDFVNQ,not soluble
9,QADAGPDKELTLPVDSTTLDGSKSSDDQKIISYLWEKTQGPDGVQLENANSSVATVTGLQVGTYVFTLTVKDERNLQSQSSVNVIVKEE,soluble
10,QAFVSAQTSTIPKTAFTAHDFVDYTLPQEQKGKEQKEQQWMKNSQTKDTDVHPYADFAVLEILLFPDSSTDRKIFNHFIQPAIRAYKQLGDSLNIFANQTLDQPKHNRYYLLGYPFLRNKAASLFLNQTEQRKEHMDKTTQILHEKPFVVLTDPAKPTLIRNKGANFTGNTWTSNYDL,not soluble
11,QDGGYSAREFMIFSSQPAEIADKIMKDLERGSTYINIEGAYKRTPGKAVYVVVDPSEVRQVREIIEEIDPKAFVSIRIVSEQLGEGFTYLRKKRSIFGR,not soluble
12,QDLTVKMTDLQTGKPVGTIELSQNKYGVGFIPELADLTPGMHGFHIHQNGSCASSEKDGKVVLGGAAGGHYDPEHTNKHGFPWTDDNHKGDLPALFVSANGLATNPVLAPRLTLKELKGHAIMIHAGGDNHSDMPKALGGGGARVACGVIQ,soluble
13,QDTSPDTLVVTANRFEQPRSTVLAPTTVVTRQDIDRWQSTSVNDVLRRLPGVDITQNGGSGQLSSIFIRGTNASHVLVLIDGVRLNLAGVSGSADLSQFPIALVQRVEYIRGPRSAVYGSDAIGGVVNIITTRDEPGTEISAGWGSNSYQNYDVSTQQQLGDKTRVTLLGDYAHTHGYDVVAYGNTGTQAQTDNDGFLSKTLYGALEHNFTDAWSGFVRGYGYDNRTNYDAYYSPGSPLLDTRKLYSQSWDAGLRYNGELIKSQLITSYSHSKDYNYDPHYGRYDSSATLDEMKQYTVQWANNVIVGHGSIGAGVDMQMQMTTPGTGYVEDGYDQRNTGIYLTGLQQVGDFTFEGAARSDDNSQFGRHGTWQTSAGWEFIEGYRFIASYGTSYKAPNLGQLYGFYGNPNLDPEKSKQWEGAFEGLTAGVNWRISGYRNDVSDLIDYDDHTLKYYNEGKARIKGVEATANFDTGPLTHTVSYDYVDARNAITDTPLLRRAKQQVKYQLDWQLYDFDMGMTMQYLGTRYDKDYSSYPYQTVKMGGVSLWDLAVAYPVTSHLTVRGKIANLFDKDYETVYGYQTAGREYTLSGSYTF,soluble
14,QECTKFKVSSCRECIESGPGCTWCQKLNFTGPGDPDSIRCDTRPQLLMRGCAADDIMDPTSLAETQEDHNGGQKQLSPQKVTLYLRPGQAAAFNVTFRRAKGY,soluble
15,QEGTSPMQKETRFLPGTNVEYEDYSTFFDKFSASGGFVLFNSNRKKYTIYNRKESTSRFAPASTYKVFSALLALESGIITKNDSHMTWDGTQYPYKEWNQDQDLFSAMSSSTTWYFQKLDRQIGEDHLRHYLKSIHYGNEDFSVPADYWLDGSLQISPLEQVNILKKFYDNEFDFKQSNIETVKDSIRLEESNGRVLSGKTGTSVINGELHAGWFIGYVETADNTFFFAVHIQGEKRAAGSSAAEIALSILDKKGIYPSVSR,soluble
16,QHGSSTDPSFVALRNNSSLSCDGKSRLLEFGNDLGFSKEETDVLAKQKNWEQNYTNFKKQFEHKLLDPKSFSLTDVYNLFSGFQQSVADTVKLMNELQTQVNKANDIYPVESFQVPKVPQKLFGFVDQGFFPKLNPKGLNIADNVASLFEKYSLKQATLKDFDIVLEKKNDIVLEHKVRYNFALQ,not soluble
17,QHTEERELKKRLMNTARTVSEMTEVKEALARKKQTEAVRHAVEEIRMINEADYIVVMDMNHIRYTHPVSTSIGKKSEGADEEAAFAEHIYFSEAKGEIGTAVRAFYPVKDQDLNQIGVVLVGKTLPGIADILLHLKRD,not soluble
18,QIGELKTTVGNSTIKVNDEVQVGSAFEAILGIEGLNGDTEVYSAEYLFEYNAEAFILNEITSFNDSLFVKSKEVEPGKVRILVASLGNEIEKDSDLVKVNLTPKISSELEVLGLTTALVGAGDGNTHDLELSSKEVKINEEAS,soluble
19,QNEEEADRIGIQVLQRSGFDPQAMPMFMGKLLDESRYSTRPPEMLLTHPLPESRLADARNRANQMRPVVVQSSADFYLAKARTLGMYTNGDNKLGTDLLNAWDKGNIRQQHAAQYGRALLAMESNNFDQARKTLQPLLNADPQNAWYLDLATDIDLGQKKTSDAINRLKNARELRTNPVLQLNLANALLQGGQPGEAATILNRYTFTYKEDGNGWDLLAQAEGALGNRDQELAARAESMALVGQLEQA,not soluble
20,QSRTPTIFFHGYGSSANAETHMTNAAKKAGVTKTVILAYVDQNGHVTLVGKIPKNAINPIVKVNFADNRNADYDTDAKYAKAVVSKLQKTYHFKKMNMVGHSMGNMAINFYMLANAEDKTLPQLQKQVDIAGHFDGIKNYDLPQNLTINAKTGQPNAMTAAYKRLLKLQERYPKDQVDVLNLYGDKGDGSDGIVTNDSSRTLKYLIGERAKSYQEHRFTGKLAGHSKLHENPQVDKFLINFLWGK,not soluble
21,QSTVKIILEEDTETLDEVVVVGYGVQKKSDVTGAMARVTSKVIEDRPVQNALQAMQGRVTGVDITSNNRPGELGDIRIRGNRSLTADNNPLYVIDGIPMSAGSIADVNPSDIESMEILKDASATAIYGSRGANGVILVTTKKGKTGR,not soluble
22,QTIKDFLAVAMKKWTAPFEPFQLIDNIYYVGTDGIAVYVIKTSQGLILMDTAMPQSTGMIKDNIAKLGFKVADIKLILNTHAHLDHTGGFAEIKKETGAQLVAGERDKPLLEGGYYPGDEKNEDLAFPAVKVDRAVKEGDRVTLGDTTLTAHATPGHSPGCTSWEMTVKDGKEDREVLFFCSGTVALNRLVGQPTYAGIVDDYRATFAKAKAMKIDVLLGPHPEVYGMQAKRAEMKDGAPNPFIKPGELVTYATSLSEDFDKQLAKQTAALEKK,soluble
23,QTNSPASIPHLILELLKCEPDEPQVQAKIMAYLQQEQSNRNRQEKLSAFGLLCKMADQTLFSIVEWARSSIFFRELKVDDQMKLLQNCWSELLILDHIYRQVAHGKEGTIFLVTGEHVDYSTIISHTEVAFNNLLSLAQELVVRLRSLQFDQREFVCLKFLVLFSSDVKNLENLQLVEGVQEQVNAALLDYTVCNYPQQTEKFGQLLLRLPELRAISKQAEDYLYYKHVNGDVPYNNLLIEMLHAKRA,soluble
24,QWGAPEAQKMARDLRSFALSGGSIVSVRAGVWARDANDFIFIGKVEDDKLYALNMWRFDDDKNLEKVIFAEEVDYQQDNNWLMRDVQITNMQDENVISKQEMDQMEWHTSLAPDKLAVVTVKPEELSLSGLYDYVTYLKASEQDASRYELAFWRKLTQP,not soluble
25,QYRIIDFKRDKDGIPGRVATIEYDPNRSANIALINYADGEKRYIIAPKNLKVGMEIMSGPDADIKIGNALPLENIPVGTLVHNIELKPGRGGQLVRAAGTSAQVLGKEGKYVIVRLASGEVRMILGKCRATVGEVGN,soluble
26,QYWDLRKTQQTGQCQSREDYYSAFRNEIQQSIRQSIRTDAEIMAHYSGGLDSSSIASIAALQLAKENKTLMAYTAIPKYLSGDSHRKGCKYHELDRVQSACRYYDNIETIVYQSSEDLSIFDKLQVFYPYLDQPFKAVFNMEWILAGLEMAAAKNCRILLNGEQGNGSISWKGVTLGNYLNQRVKFTRHLLKYHMKLGKQFIKSGSLNLKKNRTDLNEMKKNFLEPHYSLLRGKNRLETRSYMRSIYLWFGVEVIDPTSNLDLVQFCYDLPEWVYHGGNKYFEIRRLPKLKRRLLVRDALEGLVPPEIRHNPYRGEQAADWYYQFNKYGHAWGRLLADIAEKHPLIWEIYPKKYLLDLFANHPISPQSRNFQDVNMHLVPALSTAFFINYLNDLY,not soluble
27,RAGLSKLPDLKDAEAVQKFFLEEIQLGEELLAQGDYEKGVDHLTNAIAVCGQPQQLLQVLQQTLPPPVFQMLLTKLPTISQRIVSAQSLGEDDVE,soluble
